This is an account of results in patent US20260049138A1 (Chugai, published 2026).

Numbering of substitutions follows the chain as printed. Names and notes keep the numbering of the source.

B1: CE115HA000 K52F one-arm antibody (antibody, human IgG1, kappa, L234A L235A, N297A, name in Kabat numbering)
heavy: QVQLVESGGGVVQPGRSLRLSCAASGFTFSNAWMHWVRQAPGKGLEWVAQIFAKSNNYATYYAESVKGRFTISRDDSKNSLYLQMNSLKTEDTAVYYCRYVHYGAYYGVDAWGQGTTVTVSSASTKGPSVFPLAPSSKSTSGGTAALGCLVKDYFPEPVTVSWNSGALTSGVHTFPAVLQSSGLYSLSSVVTVPSSSLGTQTYICNVNHKPSNTKVDKKVEPKSCDKTHTCPPCPAPEAAGGPSVFLFPPKPKDTLMISRTPEVTCVVVDVSHEDPEVKFNWYVDGVEVHNAKTKPREEQYASTYRVVSVLTVLHQDWLNGKEYKCKVSNKALPAPIEKTISKAKGQPREPQVYTLPPSRCELTKNQVSLSCAVKGFYPSDIAVEWESNGQPENNYKTTPPVLDSDGSFFLVSKLTVDKSRWQQGNVFSCSVMHEALHNHYTQKSLSLSPDYKDDDDK
chain: EPKSSDKTHTCPPCPAPELLGGPSVFLFPPKPKDTLMISRTPEVTCVVVDVSHEDPEVKFNWYVDGVEVHNAKTKPREEQYNSTYRVVSVLTVLHQDWLNGKEYKCKVSNKALPAPIEKTISKAKGQPREPQVCTLPPSRDELTKNQVSLWCLVKGFYPSDIAVEWESNGQPENNYKTTPPVLDSDGSFFLYSKLTVDKSRWQQGNVFSCSVMHEALHNRYTQKSLSLSP
light: DIVMTQSPLSLPVTPGEPASISCRSSQSLVHSNRNTYLHWYQQKPGQAPRLLIYKVSNRFSGVPDRFSGSGSGTDFTLKISRVEAEDVGVYYCGQGTQVPYTFGQGTKLEIKRTVAAPSVFIFPPSDEQLKSGTASVVCLLNNFYPREAKVQWKVDNALQSGNSQESVTEQDSKDSTYSLSSTLTLSKADYEKHKVYACEVTHQGLSSPVTKSFNRGEC
B2: CE115HA000 K52bR one-arm antibody (antibody, human IgG1, kappa, L234A L235A, N297A, name in Kabat numbering)
heavy: B1 heavy with F52K, K54R
chain: B1 chain
light: B1 light
B3: CE115HA000 K64S one-arm antibody (antibody, human IgG1, kappa, L234A L235A, N297A, name in Kabat numbering)
heavy: B1 heavy with F52K, K67S
chain: B1 chain
light: B1 light
B4: CE115HA000 K64A one-arm antibody (antibody, human IgG1, kappa, L234A L235A, N297A, name in Kabat numbering)
heavy: B1 heavy with F52K, K67A
chain: B1 chain
light: B1 light
B5: CE115HA000 K64Q one-arm antibody (antibody, human IgG1, kappa, L234A L235A, N297A, name in Kabat numbering)
heavy: B1 heavy with F52K, K67Q
chain: B1 chain
light: B1 light
B6: CE115HA000 K52bL one-arm antibody (antibody, human IgG1, kappa, L234A L235A, N297A, name in Kabat numbering)
heavy: B1 heavy with F52K, K54L
chain: B1 chain
light: B1 light
B7: CE115HA000 K52H one-arm antibody (antibody, human IgG1, kappa, L234A L235A, N297A, name in Kabat numbering)
heavy: B1 heavy with F52H
chain: B1 chain
light: B1 light
B8: CE115HA000 K52N one-arm antibody (antibody, human IgG1, kappa, L234A L235A, N297A, name in Kabat numbering)
heavy: B1 heavy with F52N
chain: B1 chain
light: B1 light
B9: CE115HA000 K52I one-arm antibody (antibody, human IgG1, kappa, L234A L235A, N297A, name in Kabat numbering)
heavy: B1 heavy with F52I
chain: B1 chain
light: B1 light
B10: CE115HA000 K52Y one-arm antibody (antibody, human IgG1, kappa, L234A L235A, N297A, name in Kabat numbering)
heavy: B1 heavy with F52Y
chain: B1 chain
light: B1 light
B11: CE115HA000 K52bN one-arm antibody (antibody, human IgG1, kappa, L234A L235A, N297A, name in Kabat numbering)
heavy: B1 heavy with F52K, K54N
chain: B1 chain
light: B1 light
B12: CE115HA000 K52bQ one-arm antibody (antibody, human IgG1, kappa, L234A L235A, N297A, name in Kabat numbering)
heavy: B1 heavy with F52K, K54Q
chain: B1 chain
light: B1 light
B13: CE115HA000 K52R one-arm antibody (antibody, human IgG1, kappa, L234A L235A, N297A, name in Kabat numbering)
heavy: B1 heavy with F52R
chain: B1 chain
light: B1 light
B14: CE115HA000 K52S one-arm antibody (antibody, human IgG1, kappa, L234A L235A, N297A, name in Kabat numbering)
heavy: B1 heavy with F52S
chain: B1 chain
light: B1 light
B15: CE115HA000 K64E one-arm antibody (antibody, human IgG1, kappa, L234A L235A, N297A, name in Kabat numbering)
heavy: B1 heavy with F52K, K67E
chain: B1 chain
light: B1 light
B16: CE115HA000 K52bD one-arm antibody (antibody, human IgG1, kappa, L234A L235A, N297A, name in Kabat numbering)
heavy: B1 heavy with F52K, K54D
chain: B1 chain
light: B1 light
B17: CE115HA000 K52bS one-arm antibody (antibody, human IgG1, kappa, L234A L235A, N297A, name in Kabat numbering)
heavy: B1 heavy with F52K, K54S
chain: B1 chain
light: B1 light
B18: CE115HA000 K64D one-arm antibody (antibody, human IgG1, kappa, L234A L235A, N297A, name in Kabat numbering)
heavy: B1 heavy with F52K, K67D
chain: B1 chain
light: B1 light
B19: CE115HA000 K52W one-arm antibody (antibody, human IgG1, kappa, L234A L235A, N297A, name in Kabat numbering)
heavy: B1 heavy with F52W
chain: B1 chain
light: B1 light
B20: CE115HA000 K52bY one-arm antibody (antibody, human IgG1, kappa, L234A L235A, N297A, name in Kabat numbering)
heavy: B1 heavy with F52K, K54Y
chain: B1 chain
light: B1 light
B21: CE115HA000 K52bA one-arm antibody (antibody, human IgG1, kappa, L234A L235A, N297A, name in Kabat numbering)
heavy: B1 heavy with F52K, K54A
chain: B1 chain
light: B1 light

For this experiment, the target named is T1, CD3ε homodimer protein (human, UniProt P07766 23-126, limits assumed, sulfo-tag or biotin label in the ECL assays; amine-coupled to the chip in SPR).
T1 construct: also called human CD3ε homodimer protein; CD3 (CD3ε)
T1 sequence (P07766 23-126 limits assumed): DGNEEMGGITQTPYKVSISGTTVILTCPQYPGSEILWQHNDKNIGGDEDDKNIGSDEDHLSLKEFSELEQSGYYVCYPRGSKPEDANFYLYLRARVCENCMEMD
Briefly: SPR Biacore T200; CD3ε homodimer on CM4 chip.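 Further: Single-residue variant antibodies injected as analyte over CD3ε homodimer immobilized by amine coupling, run at 25 °C in HBS-EP+ buffer.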
As to B1, the “ratio of amounts bound Z=Y/X (altered form / CE115HA000)” value was found to be 0.17.

Regarding B2, the “ratio of amounts bound Z=Y/X (altered form / CE115HA000)” value amounted to 1.11.

For the molecule B3, the “ratio of amounts bound Z=Y/X (altered form / CE115HA000)” value stood at 0.84.

For B4, the “ratio of amounts bound Z=Y/X (altered form / CE115HA000)” value was 0.82.

Take B5: the “ratio of amounts bound Z=Y/X (altered form / CE115HA000)” value was 0.89.

With B6, the “ratio of amounts bound Z=Y/X (altered form / CE115HA000)” value came to 0.61.

As for B7, the “ratio of amounts bound Z=Y/X (altered form / CE115HA000)” value is 0.22.

Turning to B8, the “ratio of amounts bound Z=Y/X (altered form / CE115HA000)” value was 0.34.

For the molecule B9, the “ratio of amounts bound Z=Y/X (altered form / CE115HA000)” value was determined as 0.33.

Turning to B10, the “ratio of amounts bound Z=Y/X (altered form / CE115HA000)” value was 0.18.

With B11, the “ratio of amounts bound Z=Y/X (altered form / CE115HA000)” value is 0.27.

For the molecule B12, the “ratio of amounts bound Z=Y/X (altered form / CE115HA000)” value is 0.6.

Turning to B13, the “ratio of amounts bound Z=Y/X (altered form / CE115HA000)” value is 0.91.

Take B14: the “ratio of amounts bound Z=Y/X (altered form / CE115HA000)” value turned out to be 0.28.

For B15, the “ratio of amounts bound Z=Y/X (altered form / CE115HA000)” value is 0.74.

With B16, the “ratio of amounts bound Z=Y/X (altered form / CE115HA000)” value worked out at 0.27.

Consider B17, for which the “ratio of amounts bound Z=Y/X (altered form / CE115HA000)” value was 0.68.

Take B18: the “ratio of amounts bound Z=Y/X (altered form / CE115HA000)” value amounted to 0.72.

For B19, the “ratio of amounts bound Z=Y/X (altered form / CE115HA000)” value was 0.22.

As to B20, the “ratio of amounts bound Z=Y/X (altered form / CE115HA000)” value turned out to be 0.74.

As to B21, the “ratio of amounts bound Z=Y/X (altered form / CE115HA000)” value was 0.67.
